According to article PMC3948114:
Changes are numbered by the printed parent chain. In names and notes the source's numbering stands.

B1: FLAG-tagged 3DL1*001, P43629 M165A (protein)
chain: HMGGQDKPFLSAWPSAVVPRGGHVTLRCHYRHRFNNFMLYKEDRIHIPIFHGRIFQESFNMSPVTTAHAGNYTCRGSHPHSPTGWSAPSNPVVIMVTGNHRKPSLLAHPGPLVKSGERVILQCWSDIMFEHFFLHKEGISKDPSRLVGQIHDGVSKANFSIGPMALALAGTYRCYGSVTHTPYQLSAPSDPLDIVVTGPYEKPSLSAQPGPKVQAGESVTLSCSSRSSYDMYHLSREGGAHERRLPAVRKVNRTFQADFPLGPATHGGTYRCFGSFRHSPYEWSDPSDPLLVSVTGNPSSSWPSPTEPSSKSGNPRHLHILIGTSVVIILFILLLFFLLHLWCSNKKNAAVMDQEPAGNRTANSEDSDEQDPEEVTYAQLDHCVFTQRKITRPSQRPKTPPTDTILYTELPNAKPRSKVVSCP
B2: FLAG-tagged 3DL1*001, P43629 Y200F (protein)
chain: B1 chain with A165M, Y200F
B3: FLAG-tagged 3DL1*001, P43629 E282A (protein)
chain: B1 chain with A165M, E282A
B4: FLAG-tagged 3DL1*001, P43629 L166A (protein)
chain: B1 chain with A165M, L166A
B5: FLAG-tagged 3DL1*001, P43629 A167G (protein)
chain: B1 chain with A165M, A167G
B6: FLAG-tagged 3DL1*001, P43629 E282Q (protein)
chain: B1 chain with A165M, E282Q
B7: FLAG-tagged 3DL1*001, P43629 D230A (protein)
chain: B1 chain with A165M, D230A
B8: FLAG-tagged 3DL1*001, P43629 P199A (protein)
chain: B1 chain with A165M, P199A
B9: FLAG-tagged 3DL1*001, P43629 L166V (protein)
chain: B1 chain with A165M, L166V
B10: FLAG-tagged 3DL1*001, P43629 Y200A (protein)
chain: B1 chain with A165M, Y200A

Experiments:
HLA-B*27:05-KF9 tetramer = assay: tetramer staining of transfected HEK293 cells; details: chain shown with the change; 0.2 μg tetramer; parent: est. 100; read off a plot
[1] = target: HLA-B*27:05-KF9 N8H tetramer; assay: tetramer staining of transfected HEK293 cells; details: chain shown with the change; 0.2 μg tetramer; parent: est. 100; read off a plot

| Binder | percent of parent (HLA-B*27:05-KF9 tetramer) | percent of parent [1] |
| --- | --- | --- |
| B1 | 60 % of ·001 | 61 % of ·001 |
| B2 | 87 % of ·001 | 81 % of ·001 |
| B3 | 51 % of ·001 | 48 % of ·001 |
| B4 | 56 % of ·001 | 45 % of ·001 |
| B5 | 65 % of ·001 | 130 % of ·001 |
| B6 | 99 % of ·001 | 89 % of ·001 |
| B7 | 70 % of ·001 | 66 % of ·001 |
| B8 | 21 % of ·001 | 21 % of ·001 |
| B9 | 36 % of ·001 | 58 % of ·001 |
| B10 | 16 % of ·001 | 15 % of ·001 |
